Where a chain is given by its changes, count along the chain named.
B1: G001_gp1_V10_VRC01c_2021-0121 (antibody, V domains shown)
VH: QVQLVQSGAEVKKPGASVKVSCKASGYSFTGYYIHWVRQVPGQGLEWMGWINPNSGGTNYAQEFQDWVTMTRDTSISTAYMELSRLRSDDTAVYYCARHKPSSRFYFDYWGQGTLVTVSS
VL: DIQMTQSPSTLSASVGDRVTITCRASQSISSWLAWYQQKPGKAPKFLLMYDASSLESGVPSRFSGSGSGTEFTLTISSLQPDDFATYYCQQYETFGQGTKVEIK
B2: G001_gp1_V10_VRC01c_2021-0126 (antibody, V domains shown)
VH: QVQLVQSGAEVKKPGASVKVSCKASESTFTDYYMHWVRQAPGQGLEWMGWMNPNSGGTNYALKFQGRVTMTRDTSISTAYMELSRLRSDDTAVYYCATKRRGTYFDQWGQGTLVTVSS
VL: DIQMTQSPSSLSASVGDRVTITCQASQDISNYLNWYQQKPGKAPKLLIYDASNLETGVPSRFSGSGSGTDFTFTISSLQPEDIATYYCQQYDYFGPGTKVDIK
B3: G001_gp1_V10_VRC01c_2021-0125 (antibody, V domains shown)
VH: QVQLVQSGAEVKKPGASVKVSCKASGYTFTGYYIHWVRQAPGQGLEWMGWLNPNSGGTNYLQKFQDRVTMTRDTSIGTAYMELSTLRSDDTAVYYCARGNSGPWAWRYWGQGTLVTVSS
VL: QSALTQPASVSGSPGQSITISCTGTSSDVGGYNSVSWYQQHPGKAPKLMIYDVSNRPSGVSNRFSGSKSGNTASLTISGLQPEDEADYYCSSYEVFGGGTKLTVL
B4: G001_gp1_V10_VRC01c_2021-0123 (antibody, V domains shown)
VH: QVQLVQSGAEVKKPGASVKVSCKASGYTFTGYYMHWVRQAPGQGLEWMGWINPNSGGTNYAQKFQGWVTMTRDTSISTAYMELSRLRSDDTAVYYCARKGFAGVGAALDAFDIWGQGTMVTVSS
VL: DIQMTQSPSTLSASVGDRVTITCRASQSISSWLAWYQQKPGKAPKLLIYKASSLESGVPSRFSGSGSGTEFTLTISSLQPDDFATYYCQQYNTFGQGTKVEIK
B5: G001_gp1_V10_VRC01c_2021-0124 (antibody, V domains shown)
VH: QVQLVQSGAEVKKPGASVKVSCKASGYTFTGYYMHWVRQAPGQGLEWMGWINPNSGGTNYARKFQGWVTMTRDTSIGTAYMELSRLRSDDTAVYYCAKSRSRDDTWLFDYWGQGTLVTVSS
VL: DIVMTQSPDSLAVSLGERATINCKSSRSVLYSSNNKNFLTWYQQKPGQPPKLLIYWASTRESGVPERFSGSGSGTDFTLTISSLQAEDVAVYYCQQYESFGQGTKLEIK
B6: G001_gp1_V10_VRC01c_2021-0122 (antibody, V domains shown)
VH: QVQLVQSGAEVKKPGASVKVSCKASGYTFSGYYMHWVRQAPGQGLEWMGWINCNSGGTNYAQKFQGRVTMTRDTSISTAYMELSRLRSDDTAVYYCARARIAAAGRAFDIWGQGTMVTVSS
VL: DIQMTQSPSSLSASVGDRVTITCQASQDISNYLNWYQQKPGKAPKLLIYDASNLETGVPSRFSGSGSGTDFTFTISSLQPEDIATYYCQQYGTFGQGTKLEIK
B7: G001_gp1_V10_VRC01c_2021-0134 (antibody, V domains shown)
VH: QVQLVQSGAEVKKPGASVKVSCEASGYTFTGSYMHWVRQAPGQGLEWMGWINPNSGGTNYAQKFQGRVTMTRDTSITTAYMELSRLRSDDTAVYYCATRAAATNWYFDLWGRGTLVTVSS
VL: B6 VL with S30N, Y32H, P44L, E55Q, G92E, T93F, Q96G, L100V, K103G
B8: G001_gp1_V10_VRC01c_2021-0136 (antibody, V domains shown)
VH: QVQLVQSGAEVKKPGASVKVSCTASGYTFTGYYMHWVRQAPGQGLEWMGWINPNSGGTNYAQKFQGWVTMTRDTSINTAYMELSRLRSDDTAVYYCARARSGYSSGWYWAYWGQGTLVTVSS
VL: B6 VL with Y32H, G92E, T93F, Q96G, L100V, K103T
B9: G001_gp1_V10_VRC01c_2021-0130 (antibody, V domains shown)
VH: QVQLVQSGAEVKKPGASVKVSCKASGYTFTGYYMHWVRQAPGQGLEWMGWINPKSGGTNYAQKFQDWVTMTRDTSISTAYMELSRLRSDDTAVYYCARARVEPGSSWLWGYWGQGTLVTVSS
VL: B6 VL with A51V, G92E, Q96G, L100V
B10: G001_gp1_V10_VRC01c_2021-0131 (antibody, V domains shown)
VH: QVQLVQSGAEVKKPGASVKVSCEASGYTFTDYYIHWVRQAPGQGLEWMGWINPSSGGTNYAQKFQGWVTMTRDTSISTAYMELSRLTSDDTAFYYCARGLGRQWEWGYWGQGTLVTVSS
VL: B6 VL with S9P, N31K, P40A, A51V, G92E, T93F, K99R
B11: G001_gp1_V10_VRC01c_2021-0133 (antibody, V domains shown)
VH: QVQLVQSGPEVKKPGASVKVSCTASGFSFTGYYIHWLRQAPGPGLEWMGWINPNSGGTNYAQIFQDRVTMTRDTSISTAYMELSRLRSDDTAVYYCARVSVTTVWYFDLWGRGTLVTVSS
VL: B6 VL with A51V, S52F, G92E, Q96G, L100V
B12: G001_gp1_V10_VRC01c_2021-0127 (antibody, V domains shown)
VH: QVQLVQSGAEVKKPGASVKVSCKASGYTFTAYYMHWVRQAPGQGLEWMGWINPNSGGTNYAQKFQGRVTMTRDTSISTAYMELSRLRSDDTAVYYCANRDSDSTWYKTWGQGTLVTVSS
VL: B6 VL with S30T, Y32H, R61S, I83V, G92V, Q96G, L100V
B13: G001_gp1_V10_VRC01c_2021-0132 (antibody, V domains shown)
VH: QVQLVQSGAEVKKPGASVKVSCQASGYTFTAYHMHWVRQAPGQGLEWMGWINPTSGGTNYAQKFQGRVTMTRDTSITTAYMDLTRLRSDDTAVYYCARHRGGWFFDLWGRGTLVTVSS
VL: B6 VL with K45N, T56A, G92E, K103R
B14: G001_gp1_V10_VRC01c_2021-0135 (antibody, V domains shown)
VH: QVQLVQSGAEVKKPGASVKVSCKASGYTFTDYYMHWVRQAPGQGLEWMGWINPSSGGTNYAQKFQDWVTMTRDTSISTAYMELSRLRSDDTAVYYCATVAPAAATWGFDSWGQGTLVTVSS
VL: B6 VL with M4T, Y32H, A43G, E55K, T74I, G92E, T93F, Q96P, L100V, E101D
B15: G001_gp1_V10_VRC01c_2021-0128 (antibody, V domains shown)
VH: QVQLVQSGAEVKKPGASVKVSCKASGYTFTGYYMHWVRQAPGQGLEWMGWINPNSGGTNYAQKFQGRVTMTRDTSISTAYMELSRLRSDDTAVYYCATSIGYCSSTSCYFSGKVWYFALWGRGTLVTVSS
VL: B6 VL with K45N, S76T, G92E, K99N
B16: G001_gp1_V10_VRC01c_2021-0137 (antibody, V domains shown)
VH: QVQLVQSGAEVKKPGASVKVSCKASGYTFTGYYMYWVRQAPGQGFEWMGWLNPNSGGTNYAQKFQGRVTMTRDTSISTAYMELSRLRSDDTAVYYCARVTSGSGWAFDYWGQGTLVTVSS
VL: B6 VL with Y32N, A51V, Q96G, L100V
B17: G001_LD_07A_VRC01c_59 (antibody, V domains shown)
VH: QVQLVQSGAEVKKPGTSVKVSCKASEYTFTGYYVHWVRQAPGQGLEWMGWINPNSGGTNYAQKFQGWVTMTRDTSISTAYMELSRLKSDDTAVYYCARSDYISSWYFGYWGQGTLVTVSS
VL: EIVMTQSPATLSVSPGERATLSCRASQSVSSNLAWYQQKPGQAPRLLIYGTSTRATGIPARFSGSGSGTEFTLTISSLQSEDFAVYYCQQYETFGQGTKVEIK
notes: also called G001-59
B18: G001_LD_07A_VRC01c_58 (antibody, V domains shown)
VH: QVQLVQSGAEVRKPGASVKVSCKASGYTFTDYYIHWVRQAPGQGLEWMGWINPNSGGTNYAQKFQGWVTMTRDTSISTAHMELRRLRSDDRAVYYCARGVVHSGFEFGYWGQGTLVTVSS
VL: B4 VL with S31N, N92E
notes: also called G001-58
B19: G001_gp1_V10_VRC01c_179 (antibody, V domains shown)
VH: QVQLVQSGADVKKPGASVKVSCKASGYTFTDYYMHWVRQAPGQGLEWMGWINPNSGGTNYAQKFQDRVTMTRDTSVSTAYMEVSGLRSDDTAVYYCARIKLCNGGSCNWSLGYWGQGSLVTVSS
VL: B6 VL with D50G, G92E, T93F, Q96P, L100V, E101D
notes: also called G001-179
B20: G001_gp1_V10_VRC01c_2021-0087 (antibody, V domains shown)
VH: QVQLVQSGAEVKKPGASVKVSCKASGYTFTGNYIHWVRQAPGQGLEWVGWLNPNSGGTNYAQQFQGRVTMTRDTSISTAYMELNRLRSDDTAVFYCARGLWQWEFRYWGQGTLVTVSS
VL: DIVLTQSPGTLSLSPGERATLSCRASQSVSSSNLAWYQQKPGQAPRLLIYGASSRATGIPDRFSGSGSGTDFTLTISRLEPEDCAVYYCQQYEGFGGGTKVEIK
notes: also called G001-0087

Biological target: eOD-GT8 (engineered outer domain germline-targeting version 8), monomer (HIV-1 gp120 engineered outer domain, …)
Assay: not given
Conditions: not given

Row | Binder | binding result
1 | B1 | binds
2 | B2 | binds
3 | B3 | binds
4 | B4 | binds
5 | B5 | binds
6 | B6 | binds
7 | B7 | binds
8 | B8 | binds
9 | B9 | binds
10 | B10 | binds
11 | B11 | binds
12 | B12 | binds
13 | B13 | binds
14 | B14 | binds
15 | B15 | binds
16 | B16 | binds

Biological target: eOD-GT8 (engineered outer domain germline-targeting version 8), monomer (HIV-1 gp120 engineered outer domain, …)
Assay: SPR
Conditions: both partners purified

Row | Binder | Kd
17 | B17 | 1.76 nM
18 | B18 | 0.437 nM
19 | B19 | 0.13 nM
20 | B20 | 0.15 nM

Source: publication PMC12377726 (Proceedings of the National Academy of Sciences of the …, 2025)
